According to patent US20120141456A1 (Biogen, published 2012):

T1: full-length rat DR6 on transfected cells (rat, UniProt D3ZF92 42-655)
T1 construct: whole, on cells
T1 sequence (looked up): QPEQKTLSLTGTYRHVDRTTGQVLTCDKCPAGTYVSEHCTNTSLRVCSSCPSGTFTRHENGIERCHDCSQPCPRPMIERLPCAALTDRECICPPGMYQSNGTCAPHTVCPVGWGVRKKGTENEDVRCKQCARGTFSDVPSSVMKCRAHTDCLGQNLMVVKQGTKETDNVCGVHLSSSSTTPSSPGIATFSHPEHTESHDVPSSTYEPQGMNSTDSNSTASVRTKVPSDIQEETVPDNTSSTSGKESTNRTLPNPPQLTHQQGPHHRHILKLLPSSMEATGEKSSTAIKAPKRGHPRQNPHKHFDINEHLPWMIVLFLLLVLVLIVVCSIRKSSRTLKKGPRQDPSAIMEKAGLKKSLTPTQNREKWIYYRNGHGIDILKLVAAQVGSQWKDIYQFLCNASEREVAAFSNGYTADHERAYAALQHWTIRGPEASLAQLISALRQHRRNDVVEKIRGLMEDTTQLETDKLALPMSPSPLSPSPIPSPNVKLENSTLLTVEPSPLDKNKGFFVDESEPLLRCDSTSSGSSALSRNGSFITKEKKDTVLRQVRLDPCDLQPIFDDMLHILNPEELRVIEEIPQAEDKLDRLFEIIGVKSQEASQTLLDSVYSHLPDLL

T2: full-length human DR6 on transfected cells (human, UniProt O75509 42-655)
T2 construct: also called Death Receptor-6; TNFRSF21
T2 sequence: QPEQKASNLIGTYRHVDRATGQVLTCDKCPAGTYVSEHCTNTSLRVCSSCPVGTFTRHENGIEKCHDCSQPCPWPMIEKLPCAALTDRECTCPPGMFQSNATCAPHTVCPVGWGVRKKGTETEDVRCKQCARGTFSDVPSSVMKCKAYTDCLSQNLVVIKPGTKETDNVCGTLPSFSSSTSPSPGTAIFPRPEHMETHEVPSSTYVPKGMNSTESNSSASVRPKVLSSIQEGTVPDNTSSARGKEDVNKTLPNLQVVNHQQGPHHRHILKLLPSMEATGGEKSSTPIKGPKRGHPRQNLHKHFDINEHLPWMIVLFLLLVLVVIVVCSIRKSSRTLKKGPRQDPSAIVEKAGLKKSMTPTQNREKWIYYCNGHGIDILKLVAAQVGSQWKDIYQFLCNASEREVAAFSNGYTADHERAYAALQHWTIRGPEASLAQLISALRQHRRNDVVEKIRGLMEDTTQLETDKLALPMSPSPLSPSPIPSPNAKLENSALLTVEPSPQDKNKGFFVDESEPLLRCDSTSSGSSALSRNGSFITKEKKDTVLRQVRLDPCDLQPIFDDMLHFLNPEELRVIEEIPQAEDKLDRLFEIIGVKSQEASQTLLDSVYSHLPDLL

T3: full-length mouse DR6 on transfected cells (mouse, UniProt Q9EPU5 42-655)
T3 sequence: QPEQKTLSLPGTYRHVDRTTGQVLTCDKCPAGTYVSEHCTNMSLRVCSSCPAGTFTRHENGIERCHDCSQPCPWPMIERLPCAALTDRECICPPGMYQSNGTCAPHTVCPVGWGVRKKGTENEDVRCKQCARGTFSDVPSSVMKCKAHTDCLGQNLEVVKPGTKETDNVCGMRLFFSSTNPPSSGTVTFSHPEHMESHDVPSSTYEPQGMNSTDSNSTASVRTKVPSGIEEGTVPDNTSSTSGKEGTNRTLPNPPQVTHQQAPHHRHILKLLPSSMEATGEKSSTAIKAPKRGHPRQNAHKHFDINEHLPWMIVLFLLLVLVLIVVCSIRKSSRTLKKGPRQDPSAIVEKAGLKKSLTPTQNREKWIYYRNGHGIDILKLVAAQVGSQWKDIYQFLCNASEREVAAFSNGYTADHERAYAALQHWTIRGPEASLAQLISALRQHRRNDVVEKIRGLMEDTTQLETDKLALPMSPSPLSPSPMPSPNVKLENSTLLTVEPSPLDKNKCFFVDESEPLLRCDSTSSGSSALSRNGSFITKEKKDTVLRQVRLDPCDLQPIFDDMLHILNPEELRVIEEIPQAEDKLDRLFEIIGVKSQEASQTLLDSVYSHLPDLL

B1: 1P5D10.2 (antibody, V domains shown)
VH: EVQLVESGGGLVKPGGSLKLSCAASGFTFSDYYMYWVRQTPEKRLEWVATISDGGLYTYYQDSVKGRFTISRDNAKNNLYLQMSSLKSEDTAMYYCAREDDYDGDFYTMDYWGQGTSVTVSS
VL: QIVLTQSPAIMSASPGEKVTITCSASSSVSYMHWFQQKPGTSPKLWIYSTSNLASGVPARFSGSGSGTSYSLTISRMEAEDAATYYCQQRSSYPLTFGAGTKLELK
notes: Murine hybridoma monoclonal antibody; subgroup III(D) heavy chain, subgroup VI kappa light chain
B2: M50-H01 (Fab, V domains shown)
VH: EVQLLESGGGLVQPGGSLRLSCAASGFTFSDYPMMWVRQAPGKGLEWVSRISPSGGHTIYADSVKGRFTISRDNSKNTLYLQMNSLRAEDTAVYYCAKDWHGGGAFDIWGQGTMVTVSS
VL: DIQMTQSPSSVSASVGDRVTITCRASQGIRSWLAWYQQKPGKAPKLLIYDASTLQSGVPSRFRGGGSGTDFTLTISSLQPEDFATYYCQQSYSTPLTFGGGTKVEIK
notes: Human Fab from a phage display library
B3: M66-B03 (Fab, V domains shown)
VH: EVQLLESGGGLVQPGGSLRLSCAASGFTFSPYWMSWVRQAPGKGLEWVSVIYPSGGHTYYADSVKGRFTISRDNSKNTLYLQMNSLRAEDTAVYYCARPGFGAAFDYWGPGTLVTVSS
VL: DIQMTQSPSSVSASVGDRVTITCRASQGISSWLAWYQQKPGKAPKLLIYAASSLQSGVPSRFSGSGSGTDFTLTISSLQPEDFATYYCQQANSFPLTFGGGTKVEIK
B4: M53-F04 (Fab, V domains shown)
VH: EVQLLESGGGLVQPGGSLRLSCAASGFTFSEYTMHWVRQAPGKGLEWVSVISSSGGRTVYADSVKGRFTISRDNSKNTLYLQMNSLRAEDTAVYYCARDLSNYMDYWGQGTLVTVSS
VL: DIQMTQSPATLSLSPGERATLSCRASQTVSNYLAWYQQKPGQAPRLLIYDASNRATGIPARFSGSGSGTDFTLTISSLEPEDFAVYYCQQRSKWLSFGGGTKVEIK
notes: as for B2
B5: M62-B02 (Fab, V domains shown)
VH: EVQLLESGGGLVQPGGSLRLSCAASGFTFSMYIMNWVRQAPGKGLEWVSSIVSSGGWTFYADSVKGRFTISRDNSKNTLYLQMNSLRAEDTAVYYCARGHYGMDVWGQGTTVTVSS
VL: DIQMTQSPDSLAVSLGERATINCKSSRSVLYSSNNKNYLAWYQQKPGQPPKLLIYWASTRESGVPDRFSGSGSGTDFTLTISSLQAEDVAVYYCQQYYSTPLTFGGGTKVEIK
notes: as for B2
B6: M72-F03 (Fab, V domains shown)
VH: EVQLLESGGGLVQPGGSLRLSCAASGFTFSQYMMSWVRQAPGKGLEWVSVIYPSGGSTHYADSVKGRFTISRDNSKNTLYLQMNSLRAEDTAVYYCARGHYGMDVWGQGTTVTVSS
VL: DIQMTQSPDSLAVSLGERATINCKSSQSVLYSSNNKNYLAWYQHKAGQPPKLLIHWASSRASGVPDRFSGSGSGTDFTLTISSLQAEDVAVYYCQQFYSLPLTFGGGTKVEIR
notes: as for B2
B7: 1P2F2.1 (antibody, V domains shown)
VH: QVQLQQSGPEVARPGASVKLSCKASGYTFTDYYLNWVKQRTGQGLEWIGEIYPGNNHTYYNEKFKGKATLTADNSSSTAYLQFSSLTSEDSAVYFCTRGVIKWGQGTLVTVSV
VL: DILMTQSPSSMSVSLGDTVSITCHASQGIRNSIGWLQQKPGKSFKGLIYHATTLEDGVPSRFTGSGSGADFSLTISSLESEDFADYYCVQYAQFPYTFGGGTKLEIK
notes: Murine hybridoma monoclonal antibody; subgroup II(A) heavy chain, subgroup V kappa light chain
B8: M53-E04 (Fab, V domains shown)
VH: EVQLLESGGGLVQPGGSLRLSCAASGFTFSNYEMSWVRQAPGKGLEWVSSIYSSGGETLYADSVKGRFTISRDNSKNTLYLQMNSLRAEDTAVYYCARDGAADYWGQGTLVTVSS
VL: QSELTQPPSASGTPGQWVTISCSGSTSNIGNNYVYWYQQLPGTAPKLLIYTNNQRPSGVPDRFSGSKSGTSASLAISGLRSEDEADYYCATWDDSLYAPVFGGGTKVTVL
notes: as for B2
B9: M67-G02 (Fab, V domains shown)
VH: EVQLLESGGGLVQPGGSLRLSCAASGFTFSRYSMQWVRQAPGKGLEWVSVISPSGGSTMYADSVKGRFTISRDNSKNTLYLQMNSLRAEDTAVYYCARESYSSSWYSGYYYYYGMDVWGQGTTVTVSS
VL: DIQMTQSPASLSASVGDRVTITCRASQTIAGYLNWYQQTPGKAPNLLIYDASRLQSGVPSRFSGSGSGTDFTLSISGLQPEDFGTYYCQQSYTIPLTFGGGTKVEIK
notes: as for B2
B10: M73-C04 (Fab, V domains shown)
VH: EVQLLESGGGLVQPGGSLRLSCAASGFTFSPYAMVWVRQAPGKGLEWVSSISPSGGGTGYADSVKGRFTISRDNSKNTLYLQMNSLRAEDTAVYYCAREGWNYYYGMDVWGQGTTVTVSS
VL: DIQMTQSPATLSLSPGERATLSCRASQSVSSYLAWYQQKPGQAPRLLIYDASNRATGIPARFSGSGSGTDFTLAISSLQPEDSATYYCLQDFIYPYTFGQGTKLEIR
notes: as for B2
B11: M63-E10 (Fab, V domains shown)
VH: EVQLLESGGGLVQPGGSLRLSCAASGFTFSQYKMSWVRQAPGKGLEWVSSISSSGGTNYADSVKGRFTISRDNSKNTLYLQMNSLRAEDTAMYYCARRNYGDRPYWYFDLWGRGTLVTVSS
VL: DIQMTQSPSTLSASVGDRVTITCRASQTISRWLAWYQHKPGKAPKLLIYKTSNLESGVPSRFSGSGSGTEFTLTISSLQPDDFATYYCQQYKSYSITFGPGTKVDIK
notes: as for B2
B12: M51-H09 (Fab, V domains shown)
VH: EVQLLESGGGLVQPGGSLRLSCAASGFTFSPYSMTWVRQAPGKGLEWVSSIVPSGGKTWYADSVKGRFTISRDNSKNTLYLQMNSLRAEDTAVYYCARTNLSYFDYWGQGTLVTVSS
VL: QSELTQPPSASGSPGQSVTISCTGTSNDVGSYNYISWFQQHPGKAPKLMIYEVNKRPSGVPDRFSGSKSDNTASLTVSGLQAEDEADYYCTSYAGSHKWVFGGGTKLTVL
notes: as for B2

Key:
[1] = target: T1, full-length rat DR6 on transfected cells; assay: FACS on HEK293 cells transfected with full length rat DR6, serial dilutions of antibody
Description: (§1) Six million HEK293 cells were transfected with 10 ug of plasmid DNA, which encoded full length human, rat, or mouse DR6. Three days after transfection, approximately 50,000 cells in 200 μL of PBS, 1% BSA, 0.1% NaN3 (FACS buffer) were analyzed. Cells were pelleted and resuspended in 150 μl of serial dilutions of anti-DR6 antibodies in FACS buffer. Samples were incubated for 1 hour on ice with occasional agitation and then washed three times. Bound DR6 antibody was visualized with PE-labeled goat F(ab)₂ anti-human Fab (for Dyax Fabs) or anti-mouse IgG specific antibody (for monoclonal antibodies) (Jackson Labs).

[2] = target: T2, full-length human DR6 on transfected …; assay: FACS on HEK293 cells transfected with full length human DR6, serial dilutions of antibody
Description: as §1

[3] = target: T3, full-length mouse DR6 on transfected …; assay: FACS on HEK293 cells transfected with full length mouse DR6, serial dilutions of antibody
Description: as §1

[4] = target: T2, full-length human DR6 on transfected …; assay: FACS on 293E cells transfected with full-length human DR6
[5] = target: T1, full-length rat DR6 on transfected cells; assay: FACS on 293T cells transfected with rat DR6 (FIG. 13A)
Description: as §1

[6] = target: T2, full-length human DR6 on transfected …; assay: FACS on 293T cells transfected with human DR6 (FIG. 13B)
Description: as §1

[7] = target: T3, full-length mouse DR6 on transfected …; assay: FACS on 293T cells transfected with mouse DR6 (FIG. 13C)
Description: as §1

| Binder | binding result [4] | further results |
| --- | --- | --- |
| B1 | – | binding result [1]: binds; binding result [2]: binds; binding result [3]: binds |
| B2 | binds | – |
| B3 | binds | – |
| B4 | binds | – |
| B5 | binds | – |
| B6 | binds | – |
| B7 | – | binding result [5]: binds; binding result [6]: binds; binding result [7]: binds |
| B8 | binds | – |
| B9 | binds | – |
| B10 | binds | – |
| B11 | binds | – |
| B12 | binds | – |
